Patent US20230183328A1

What was measured:
[1] = biological target: antigen of the Antigen binding ELISA (not named; BAN2401 is described as binding human Aβ protofibrils) (UniProt P05067); experiment: antigen binding ELISA; formulation F15, 25°C/1M
[2] = biological target: antigen of the Antigen binding ELISA (not named; BAN2401 is described as binding human Aβ protofibrils) (UniProt P05067); experiment: antigen binding ELISA; formulation F17, 25°C/1M
CD32a [3] = biological target: CD32a (UniProt P12318); experiment: CD32a binding assay; formulation F13, 5°C/2M
CD32a, sequence (P12318 36-218): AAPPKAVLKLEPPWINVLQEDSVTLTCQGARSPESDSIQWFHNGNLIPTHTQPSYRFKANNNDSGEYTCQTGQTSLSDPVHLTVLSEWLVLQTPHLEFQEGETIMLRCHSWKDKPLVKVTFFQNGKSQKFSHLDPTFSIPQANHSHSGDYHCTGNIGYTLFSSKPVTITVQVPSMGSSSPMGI

[4] = biological target: antigen of the Antigen binding ELISA (not named; BAN2401 is described as binding human Aβ protofibrils) (UniProt P05067); experiment: antigen binding ELISA; formulation F18, freeze-thaw 3 cycles
[5] = biological target: antigen of the Antigen binding ELISA (not named; BAN2401 is described as binding human Aβ protofibrils) (UniProt P05067); experiment: antigen binding ELISA; formulation F18, 25°C dark/7 D
CD32a [6] = biological target: CD32a (UniProt P12318); experiment: CD32a binding assay; formulation F15, 25°C 1000 lx/7 D
CD32a [7] = biological target: CD32a (UniProt P12318); experiment: CD32a binding assay; formulation F17, 25°C/2M
CD32a [8] = biological target: CD32a (UniProt P12318); experiment: CD32a binding assay; formulation F18, initial
[9] = biological target: antigen of the Antigen binding ELISA (not named; BAN2401 is described as binding human Aβ protofibrils) (UniProt P05067); experiment: antigen binding ELISA; formulation F13, initial
CD32a [10] = biological target: CD32a (UniProt P12318); experiment: CD32a binding assay; formulation F15, 5°C/2M
[11] = biological target: antigen of the Antigen binding ELISA (not named; BAN2401 is described as binding human Aβ protofibrils) (UniProt P05067); experiment: antigen binding ELISA; formulation F13, 5°C/2M
CD32a [12] = biological target: CD32a (UniProt P12318); experiment: CD32a binding assay; formulation F17, initial
[13] = biological target: antigen of the Antigen binding ELISA (not named; BAN2401 is described as binding human Aβ protofibrils) (UniProt P05067); experiment: antigen binding ELISA; formulation F15, 25°C/2M
CD32a [14] = biological target: CD32a (UniProt P12318); experiment: CD32a binding assay; formulation F17, 25°C/1M
CD32a [15] = biological target: CD32a (UniProt P12318); experiment: CD32a binding assay; formulation F17, 5°C/2M
[16] = biological target: antigen of the Antigen binding ELISA (not named; BAN2401 is described as binding human Aβ protofibrils) (UniProt P05067); experiment: antigen binding ELISA; formulation F0, initial
CD32a [17] = biological target: CD32a (UniProt P12318); experiment: CD32a binding assay; formulation F15, freeze-thaw 3 cycles
CD32a [18] = biological target: CD32a (UniProt P12318); experiment: CD32a binding assay; formulation F0, initial
[19] = biological target: antigen of the Antigen binding ELISA (not named; BAN2401 is described as binding human Aβ protofibrils) (UniProt P05067); experiment: antigen binding ELISA; formulation F18, 25°C 1000 lx/7 D
[20] = biological target: antigen of the Antigen binding ELISA (not named; BAN2401 is described as binding human Aβ protofibrils) (UniProt P05067); experiment: antigen binding ELISA; formulation F18, 5°C/2M
[21] = biological target: antigen of the Antigen binding ELISA (not named; BAN2401 is described as binding human Aβ protofibrils) (UniProt P05067); experiment: antigen binding ELISA; formulation F0, 25°C/2M
[22] = biological target: antigen of the Antigen binding ELISA (not named; BAN2401 is described as binding human Aβ protofibrils) (UniProt P05067); experiment: antigen binding ELISA; formulation F15, 25°C 1000 lx/7 D
CD32a [23] = biological target: CD32a (UniProt P12318); experiment: CD32a binding assay; formulation F0, 25°C/1M
CD32a [24] = biological target: CD32a (UniProt P12318); experiment: CD32a binding assay; formulation F18, initial; remark: listed apart in the source
CD32a [25] = biological target: CD32a (UniProt P12318); experiment: CD32a binding assay; formulation F18, freeze-thaw 3 cycles
[26] = biological target: antigen of the Antigen binding ELISA (not named; BAN2401 is described as binding human Aβ protofibrils) (UniProt P05067); experiment: antigen binding ELISA; formulation F18, 25°C/2M
[27] = biological target: antigen of the Antigen binding ELISA (not named; BAN2401 is described as binding human Aβ protofibrils) (UniProt P05067); experiment: antigen binding ELISA; formulation F15, 5°C/2M
CD32a [28] = biological target: CD32a (UniProt P12318); experiment: CD32a binding assay; formulation F0, 25°C/2M
[29] = biological target: antigen of the Antigen binding ELISA (not named; BAN2401 is described as binding human Aβ protofibrils) (UniProt P05067); experiment: antigen binding ELISA; formulation F15, 25°C dark/7 D
CD32a [30] = biological target: CD32a (UniProt P12318); experiment: CD32a binding assay; formulation F18, 25°C/2M
[31] = biological target: antigen of the Antigen binding ELISA (not named; BAN2401 is described as binding human Aβ protofibrils) (UniProt P05067); experiment: antigen binding ELISA; formulation F17, initial
CD32a [32] = biological target: CD32a (UniProt P12318); experiment: CD32a binding assay; formulation F0, 5°C/2M
CD32a [33] = biological target: CD32a (UniProt P12318); experiment: CD32a binding assay; formulation F13, 25°C/1M
[34] = biological target: antigen of the Antigen binding ELISA (not named; BAN2401 is described as binding human Aβ protofibrils) (UniProt P05067); experiment: antigen binding ELISA; formulation F17, 25°C/2M
[35] = biological target: antigen of the Antigen binding ELISA (not named; BAN2401 is described as binding human Aβ protofibrils) (UniProt P05067); experiment: antigen binding ELISA; formulation F13, 25°C/2M
[36] = biological target: antigen of the Antigen binding ELISA (not named; BAN2401 is described as binding human Aβ protofibrils) (UniProt P05067); experiment: antigen binding ELISA; formulation F15, initial
CD32a [37] = biological target: CD32a (UniProt P12318); experiment: CD32a binding assay; formulation F13, initial
CD32a [38] = biological target: CD32a (UniProt P12318); experiment: CD32a binding assay; formulation F15, initial
CD32a [39] = biological target: CD32a (UniProt P12318); experiment: CD32a binding assay; formulation F18, 25°C dark/7 D
[40] = biological target: antigen of the Antigen binding ELISA (not named; BAN2401 is described as binding human Aβ protofibrils) (UniProt P05067); experiment: antigen binding ELISA; formulation F18, 25°C/1M
CD32a [41] = biological target: CD32a (UniProt P12318); experiment: CD32a binding assay; formulation F18, 5°C/2M
[42] = biological target: antigen of the Antigen binding ELISA (not named; BAN2401 is described as binding human Aβ protofibrils) (UniProt P05067); experiment: antigen binding ELISA; formulation F17, 5°C/2M
[43] = biological target: antigen of the Antigen binding ELISA (not named; BAN2401 is described as binding human Aβ protofibrils) (UniProt P05067); experiment: antigen binding ELISA; formulation F0, 5°C/2M
CD32a [44] = biological target: CD32a (UniProt P12318); experiment: CD32a binding assay; formulation F18, 25°C/1M
CD32a [45] = biological target: CD32a (UniProt P12318); experiment: CD32a binding assay; formulation F15, 25°C/1M
CD32a [46] = biological target: CD32a (UniProt P12318); experiment: CD32a binding assay; formulation F13, 25°C/2M
CD32a [47] = biological target: CD32a (UniProt P12318); experiment: CD32a binding assay; formulation F18, 25°C 1000 lx/7 D
[48] = biological target: antigen of the Antigen binding ELISA (not named; BAN2401 is described as binding human Aβ protofibrils) (UniProt P05067); experiment: antigen binding ELISA; formulation F13, 25°C/1M
[49] = biological target: antigen of the Antigen binding ELISA (not named; BAN2401 is described as binding human Aβ protofibrils) (UniProt P05067); experiment: antigen binding ELISA; formulation F0, 25°C/1M
CD32a [50] = biological target: CD32a (UniProt P12318); experiment: CD32a binding assay; formulation F0, 25°C/1M; remark: listed apart in the source
[51] = biological target: antigen of the Antigen binding ELISA (not named; BAN2401 is described as binding human Aβ protofibrils) (UniProt P05067); experiment: antigen binding ELISA; formulation F15, freeze-thaw 3 cycles
CD32a [52] = biological target: CD32a (UniProt P12318); experiment: CD32a binding assay; formulation F15, 25°C/2M
[53] = biological target: antigen of the Antigen binding ELISA (not named; BAN2401 is described as binding human Aβ protofibrils) (UniProt P05067); experiment: antigen binding ELISA; formulation F18, initial
CD32a [54] = biological target: CD32a (UniProt P12318); experiment: CD32a binding assay; formulation F15, 25°C dark/7 D

ELISA (Antigen binding ELISA) [1]: 104%
ELISA (Antigen binding ELISA) [2]: 107%
FcR (Binding assay (CD32a)) (CD32a [3]): 100%
ELISA (Antigen binding ELISA) [4]: 104%
ELISA (Antigen binding ELISA) [5]: 105%
FcR (Binding assay (CD32a)) (CD32a [6]): 118%
FcR (Binding assay (CD32a)) (CD32a [7]): 105%
FcR (Binding assay (CD32a)) (CD32a [8]): 106%
ELISA (Antigen binding ELISA) [9]: 109%
FcR (Binding assay (CD32a)) (CD32a [10]): 99%
ELISA (Antigen binding ELISA) [11]: 104%
FcR (Binding assay (CD32a)) (CD32a [12]): 117%
ELISA (Antigen binding ELISA) [13]: 96.9%
FcR (Binding assay (CD32a)) (CD32a [14]): 104%
FcR (Binding assay (CD32a)) (CD32a [15]): 103%
ELISA (Antigen binding ELISA) [16]: 101%
FcR (Binding assay (CD32a)) (CD32a [17]): 108%
FcR (Binding assay (CD32a)) (CD32a [18]): 91.7%
ELISA (Antigen binding ELISA) [19]: 109%
ELISA (Antigen binding ELISA) [20]: 118%
ELISA (Antigen binding ELISA) [21]: 91.8%
ELISA (Antigen binding ELISA) [22]: 101%
FcR (Binding assay (CD32a)) (CD32a [23]): 95.3%
FcR (Binding assay (CD32a)) (CD32a [24]): 92.4%
FcR (Binding assay (CD32a)) (CD32a [25]): 106%
ELISA (Antigen binding ELISA) [26]: 97.8%
ELISA (Antigen binding ELISA) [27]: 123%
FcR (Binding assay (CD32a)) (CD32a [28]): 93.5%
ELISA (Antigen binding ELISA) [29]: 107%
FcR (Binding assay (CD32a)) (CD32a [30]): 92.9%
ELISA (Antigen binding ELISA) [31]: 107%
FcR (Binding assay (CD32a)) (CD32a [32]): 93.8%
FcR (Binding assay (CD32a)) (CD32a [33]): 99.4%
ELISA (Antigen binding ELISA) [34]: 102%
ELISA (Antigen binding ELISA) [35]: 107%
ELISA (Antigen binding ELISA) [36]: 102%
FcR (Binding assay (CD32a)) (CD32a [37]): 101%
FcR (Binding assay (CD32a)) (CD32a [38]): 109%
FcR (Binding assay (CD32a)) (CD32a [39]): 105%
ELISA (Antigen binding ELISA) [40]: 97%
FcR (Binding assay (CD32a)) (CD32a [41]): 94.7%
ELISA (Antigen binding ELISA) [42]: 126%
ELISA (Antigen binding ELISA) [43]: 103%
FcR (Binding assay (CD32a)) (CD32a [44]): 91.9%
FcR (Binding assay (CD32a)) (CD32a [45]): 98.3%
FcR (Binding assay (CD32a)) (CD32a [46]): 102%
FcR (Binding assay (CD32a)) (CD32a [47]): 109%
ELISA (Antigen binding ELISA) [48]: 104%
ELISA (Antigen binding ELISA) [49]: 103%
FcR (Binding assay (CD32a)) (CD32a [50]): 95.5%
ELISA (Antigen binding ELISA) [51]: 108%
FcR (Binding assay (CD32a)) (CD32a [52]): 102%
ELISA (Antigen binding ELISA) [53]: 108%
FcR (Binding assay (CD32a)) (CD32a [54]): 104%
Substance: BAN2401 (antibody)
